From publication PMC5651189

Molecular target: PKA regulatory subunit RIIα (human (endogenous in SK-Br-3)) (UniProt P13861)
Assay: proximity ligation

PKA regulatory subunit RIIα (human (endogenous in SK-Br-3)), sequence (P13861 whole entry): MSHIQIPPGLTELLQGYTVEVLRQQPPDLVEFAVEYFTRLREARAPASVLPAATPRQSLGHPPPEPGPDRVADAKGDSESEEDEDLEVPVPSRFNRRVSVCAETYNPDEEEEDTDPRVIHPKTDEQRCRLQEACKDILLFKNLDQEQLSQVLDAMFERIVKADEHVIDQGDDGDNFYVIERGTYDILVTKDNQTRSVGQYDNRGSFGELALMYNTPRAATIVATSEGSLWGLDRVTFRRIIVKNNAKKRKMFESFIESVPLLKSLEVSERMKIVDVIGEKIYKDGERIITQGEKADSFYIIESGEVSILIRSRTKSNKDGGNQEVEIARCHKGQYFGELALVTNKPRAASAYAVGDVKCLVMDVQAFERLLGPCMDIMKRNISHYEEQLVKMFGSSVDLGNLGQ

Substance: PKA catalytic subunit (PKAc) (from UniProt P17612 1-351) (enzyme)
- decrease of CICF in SK.tDp^T39A against SK.empty cells: 67%
- increase of CICF in SK.tDp against SK.empty cells: 36%
